The text below walks through data of PMC3899939, “IpsA, a novel LacI-type regulator, is required for inositol-derived lipid formation in Corynebacteria and Mycobacteria” (BMC Biology, 2013).

For one series, the target named is T1, IpsA (Cg2910) (Corynebacterium glutamicum, UniProt Q8NMF0).
T1 construct: C-terminal STREP-tag variant (pAN6-ipsA-STREP), expressed in E. coli BL21(DE3), StrepTactin and gel filtration; 79 kDa, dimer
T1 sequence (Q8NMF0 1-358): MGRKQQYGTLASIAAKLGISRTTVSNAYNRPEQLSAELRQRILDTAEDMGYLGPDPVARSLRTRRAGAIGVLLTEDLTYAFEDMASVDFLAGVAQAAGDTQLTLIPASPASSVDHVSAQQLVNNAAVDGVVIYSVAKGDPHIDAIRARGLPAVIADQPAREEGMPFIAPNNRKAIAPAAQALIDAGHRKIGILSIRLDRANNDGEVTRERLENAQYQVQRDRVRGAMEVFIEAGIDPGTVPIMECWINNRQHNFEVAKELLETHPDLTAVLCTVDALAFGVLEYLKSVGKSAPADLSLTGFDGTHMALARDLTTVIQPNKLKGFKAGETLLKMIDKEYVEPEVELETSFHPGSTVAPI
As to the kind of experiment: EMSA, dissociation of IpsA-DNA complex (ino1 promoter). The class given is binding. The conditions noted are these: effector; IpsA preincubated 20 min with effector, then DNA; 50 mM Tris-HCl pH 7.5, 40 mM KCl, 5 mM MgCl2, room temperature. (In general: A gel shift assay detects complexes by their altered migration in electrophoresis.)

Another series concerns the target T2, IpsA-Strep (Corynebacterium glutamicum ATCC 13032, UniProt Q8NMF0 1-358).
T2 sequence: T1 sequence (Q8NMF0 1-358)
Kind of series: EMSA; EMSA: 50 mM Tris-HCl pH 7.5, 40 mM KCl, 5 mM MgCl2, room temperature, 10 uL, DNA 0.028-1 uM, 10-15% native PAGE. The settings on record: protein: recombinant; tags: C-terminal STREP-tag; chain copies: 2; blunt.

Positions count from the first letter of the chain named.

As to `O[C@H]1[C@H](O)[C@@H](O)[C@H](O)[C@@H](O)[C@H]1O` [myo-I, myo-inositol], at IpsA (Cg2910), the “lowest concentration with observed effect” value worked out at 0.2 mM.

B1: cg3323 M3 (dsDNA)
DNA 1: TTGAGTTGCTTGCGAGATCAGGTCTGATTT
DNA 2: AAATCAGACCTGATCTCGCAAGCAACTCAA
In the case of B1, the binding result with IpsA-Strep was “no binding”.

B2: cg3323 M5 (dsDNA)
DNA 1: TTGAGTTGCTTGATCGATACTGTCTGATTT
DNA 2: AAATCAGACAGTATCGATCAAGCAACTCAA
Take B2: in the series with IpsA-Strep, the binding result is “binds”.

B3: cg3323 M4 (dsDNA)
DNA 1: TTGAGTTGCTTGATCTCGCAGGTCTGATTT
DNA 2: AAATCAGACCTGCGAGATCAAGCAACTCAA
As for B3, the binding result with IpsA-Strep is “no binding”.

B4: cg3323 WT 30-mer (dsDNA)
DNA 1: B2 DNA 1 with A19C, C20A, T21G
DNA 2: B2 DNA 2 with A10C, G11T, T12G
Consider B4, for which the binding result in the series with IpsA-Strep is reported as “binds”.
